Data from paper PMC6328869, “Functional and structural studies of tolloid-like 1 mutants associated with atrial-septal defect 6” (Bioscience Reports, 2018).
Where a chain is given by its changes, count along the chain named.

T1: recombinant murine chordin (murine, UniProt Q9Z0E2 27-948)
T1 sequence (looked up): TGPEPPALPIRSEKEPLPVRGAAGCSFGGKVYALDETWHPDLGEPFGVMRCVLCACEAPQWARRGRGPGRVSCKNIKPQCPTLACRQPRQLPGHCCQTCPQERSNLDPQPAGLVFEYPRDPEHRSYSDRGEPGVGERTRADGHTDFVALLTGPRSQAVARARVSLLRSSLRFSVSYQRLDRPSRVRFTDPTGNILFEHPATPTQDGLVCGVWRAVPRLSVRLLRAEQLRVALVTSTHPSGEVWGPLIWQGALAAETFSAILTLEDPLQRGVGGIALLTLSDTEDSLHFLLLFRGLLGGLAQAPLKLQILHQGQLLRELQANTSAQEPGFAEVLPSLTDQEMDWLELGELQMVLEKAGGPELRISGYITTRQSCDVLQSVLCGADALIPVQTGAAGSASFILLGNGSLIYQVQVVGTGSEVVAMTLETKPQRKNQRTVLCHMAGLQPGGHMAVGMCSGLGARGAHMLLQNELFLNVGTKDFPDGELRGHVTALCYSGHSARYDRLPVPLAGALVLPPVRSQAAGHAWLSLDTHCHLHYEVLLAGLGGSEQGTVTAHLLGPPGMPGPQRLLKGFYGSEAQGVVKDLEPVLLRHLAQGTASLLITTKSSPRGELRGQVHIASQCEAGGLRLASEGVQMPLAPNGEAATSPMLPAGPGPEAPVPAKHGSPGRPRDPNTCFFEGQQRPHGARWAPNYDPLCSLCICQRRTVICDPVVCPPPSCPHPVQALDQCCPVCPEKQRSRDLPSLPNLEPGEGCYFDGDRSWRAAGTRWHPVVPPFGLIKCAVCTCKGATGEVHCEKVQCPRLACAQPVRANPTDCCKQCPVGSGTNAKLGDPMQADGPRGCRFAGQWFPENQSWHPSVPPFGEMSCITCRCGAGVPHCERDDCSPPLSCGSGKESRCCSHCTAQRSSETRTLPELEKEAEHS

B1: recombinant TLL1 mutated variant I629V (enzyme, human, UniProt O43897-1 148-1013, looked up)
chain: AATSRTERIWPGGVIPYVIGGNFTGSQRAMFKQAMRHWEKHTCVTFIERSDEESYIVFTYRPCGCCSYVGRRGNGPQAISIGKNCDKFGIVVHELGHVIGFWHEHTRPDRDNHVTIIRENIQPGQEYNFLKMEPGEVNSLGERYDFDSIMHYARNTFSRGMFLDTILPSRDDNGIRPAIGQRTRLSKGDIAQARKLYRCPACGETLQESNGNLSSPGFPNGYPSYTHCIWRVSVTPGEKIVLNFTTMDLYKSSLCWYDYIEVRDGYWRKSPLLGRFCGDKLPEVLTSTDSRMWIEFRSSSNWVGKGFAAVYEAICGGEIRKNEGQIQSPNYPDDYRPMKECVWKITVSESYHVGLTFQSFEIERHDNCAYDYLEVRDGTSENSPLIGRFCGYDKPEDIRSTSNTLWMKFVSDGTVNKAGFAANFFKEEDECAKPDRGGCEQRCLNTLGSYQCACEPGYELGPDRRSCEAACGGLLTKLNGTVTTPGWPKEYPPNKNCVWQVVAPTQYRISVKFEFFELEGNEVCKYDYVEIWSGLSSESKLHGKFCGAEVPEVITSQFNNMRIEFKSDNTVSKKGFKAHFFSDKDECSKDNGGCQHECVNTMGSYMCQCRNGFVLHDNKHDCKEAECEQKIHSPSGLITSPNWPDKYPSRKECTWEISATPGHRIKLAFSEFEIEQHQECAYDHLEVFDGETEKSPILGRLCGNKIPDPLVATGNKMFVRFVSDASVQRKGFQATHSTECGGRLKAESKPRDLYSHAQFGDNNYPGQVDCEWLLVSERGSRLELSFQTFEVEEEADCGYDYVELFDGLDSTAVGLGRFCGSGPPEEIYSIGDSVLIHFHTDDTINKKGFHIRYKSIRYPDTTHTKK
notes: Human tolloid-like 1 (TLL1), functional enzyme lacking the signal peptide and the latency pro-domain; encoded by nucleotides 1089-3686 of NM_012464.4 (mRNA variant 1 TLL1); mutation found in ASD6 patients, in the CUB3 domain; Same construct as m1 (procollagen I alpha 1 signal peptide for secretion, C-terminal 7xHis) with the point mutation; also called Ile629Val; mutation 3; source: HT-1080 …
B2: recombinant TLL1 mutated variant M182L (enzyme, human, UniProt O43897-1 148-1013, looked up)
chain: B1 chain with M35L, V482I
notes: Human tolloid-like 1 (TLL1), functional enzyme lacking the signal peptide and the latency pro-domain; encoded by nucleotides 1089-3686 of NM_012464.4 (mRNA variant 1 TLL1); mutation found in ASD6 patients, in the catalytic domain; Same construct as m1 (procollagen I alpha 1 signal peptide for secretion, C-terminal 7xHis) with the point mutation; also called Met182Leu; mutation 1; source: HT-1080 …
B3: recombinant TLL1 mutated variant V238A (enzyme, human, UniProt O43897-1 148-1013, looked up)
chain: B1 chain with V91A, V482I
notes: Human tolloid-like 1 (TLL1), functional enzyme lacking the signal peptide and the latency pro-domain; encoded by nucleotides 1089-3686 of NM_012464.4 (mRNA variant 1 TLL1); mutation found in ASD6 patients, in the catalytic domain; Same construct as m1 (procollagen I alpha 1 signal peptide for secretion, C-terminal 7xHis) with the point mutation; also called Val238Ala; mutation 2; source: HT-1080 …
B4: recombinant wild-type mammalian tolloid-like 1 (TLL1) (enzyme, human, UniProt O43897-1 148-1013, looked up)
chain: B1 chain with V482I
notes: Human tolloid-like 1 (TLL1), functional enzyme lacking the signal peptide and the latency pro-domain; encoded by nucleotides 1089-3686 of NM_012464.4 (mRNA variant 1 TLL1); Expressed behind the signal peptide of the procollagen I alpha 1 chain (nucleotides 5127-5192 of NM_007400.1 as printed) for secretion; also called WT; native TLL1; source: HT-1080 cells, stably transfected (pIRESneo3), …

Biological target: T1, recombinant murine chordin
Assay: cell-based or functional assay
Settings: not given

Binder	cleavage of chordin (densitometry of the intact chordin band after SDS/PAGE), activity against wild-type TLL1
B1	~25 % lower than wild-type TLL1
B2	50 % lower than wild-type TLL1
B3	~25 % lower than wild-type TLL1

Biological target: T1, recombinant murine chordin
Assay: SPR; Sensiq Pioneer biosensor; chordin amine-coupled (NHS/EDC, 10 mM acetate pH 4.5) to a COOH1 SPR chip; TLL1 variant as free analyte at 10-400 nM, 10 ul/min for 11 min; HBS-TE (HEPES-buffered saline, 0.005% Tween 20), 25 °C; regeneration with 10 mM HCl; global fitting; Kd from koff/kon
Settings: both partners purified

Binder	Ka	Kd	koff	kon
B4	8.6e+06 M⁻¹	0.117 µM	0.000305 s⁻¹	2600 M⁻¹ s⁻¹
B1	41000 M⁻¹	25 µM	0.00091 s⁻¹	37 M⁻¹ s⁻¹
B2	24000 M⁻¹	42 µM	0.0018 s⁻¹	43 M⁻¹ s⁻¹
B3	55000 M⁻¹	18 µM	0.0006 s⁻¹	33 M⁻¹ s⁻¹
